In patent US20130266576A1:

Molecular target: von Willebrand factor (vWF) (UniProt P04275)
Test: solid-phase binding assay, vWF coated on wells, FVIII 0.05-6.4 nM, no antibody, detection with biotinylated 1F5; one-site model

B-domain deleted factor VIII (FVIII), sequence (P00451 20-759, stated change not applied): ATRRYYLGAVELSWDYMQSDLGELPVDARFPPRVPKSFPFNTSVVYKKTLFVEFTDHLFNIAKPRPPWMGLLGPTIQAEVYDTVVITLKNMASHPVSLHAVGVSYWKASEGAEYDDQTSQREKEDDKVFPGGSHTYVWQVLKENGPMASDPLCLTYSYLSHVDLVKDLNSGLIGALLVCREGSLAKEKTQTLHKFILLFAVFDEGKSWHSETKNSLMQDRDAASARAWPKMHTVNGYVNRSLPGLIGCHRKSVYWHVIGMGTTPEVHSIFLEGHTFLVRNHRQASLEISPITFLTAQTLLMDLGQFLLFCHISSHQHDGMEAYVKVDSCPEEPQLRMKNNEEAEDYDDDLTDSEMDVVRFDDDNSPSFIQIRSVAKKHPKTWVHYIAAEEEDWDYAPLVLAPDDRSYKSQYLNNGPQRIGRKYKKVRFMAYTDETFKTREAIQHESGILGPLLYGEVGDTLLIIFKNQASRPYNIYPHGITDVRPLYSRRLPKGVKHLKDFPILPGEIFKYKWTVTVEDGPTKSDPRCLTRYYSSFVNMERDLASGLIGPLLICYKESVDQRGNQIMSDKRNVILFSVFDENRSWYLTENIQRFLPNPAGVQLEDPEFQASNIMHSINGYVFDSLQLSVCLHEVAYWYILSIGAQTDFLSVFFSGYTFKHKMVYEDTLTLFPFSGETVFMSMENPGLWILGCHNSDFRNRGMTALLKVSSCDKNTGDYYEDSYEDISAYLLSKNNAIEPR
B-domain deleted factor VIII (FVIII), sequence (P00451 1668-2351, stated change not applied): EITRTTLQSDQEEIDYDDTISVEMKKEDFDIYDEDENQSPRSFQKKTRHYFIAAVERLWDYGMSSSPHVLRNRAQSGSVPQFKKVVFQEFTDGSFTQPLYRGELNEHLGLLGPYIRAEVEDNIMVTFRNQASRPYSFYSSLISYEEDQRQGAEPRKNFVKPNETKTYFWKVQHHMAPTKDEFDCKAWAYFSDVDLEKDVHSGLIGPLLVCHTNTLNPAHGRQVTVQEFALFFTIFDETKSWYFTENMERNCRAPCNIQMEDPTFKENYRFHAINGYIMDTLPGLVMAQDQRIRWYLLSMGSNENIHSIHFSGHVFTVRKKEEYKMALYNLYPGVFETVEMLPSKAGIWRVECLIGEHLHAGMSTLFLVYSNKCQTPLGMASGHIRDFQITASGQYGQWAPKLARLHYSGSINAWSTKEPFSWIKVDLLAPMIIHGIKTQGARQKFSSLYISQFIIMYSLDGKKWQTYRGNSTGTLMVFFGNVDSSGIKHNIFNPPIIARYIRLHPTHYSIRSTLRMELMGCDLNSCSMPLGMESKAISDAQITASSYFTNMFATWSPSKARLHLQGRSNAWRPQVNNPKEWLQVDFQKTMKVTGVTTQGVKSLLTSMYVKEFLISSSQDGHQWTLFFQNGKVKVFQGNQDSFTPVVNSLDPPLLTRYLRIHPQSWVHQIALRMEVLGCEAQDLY

Kd: 0.29 nM
Substance: B-domain deleted factor VIII (FVIII) (from UniProt P00451 20-759; P00451 1668-2351)
